For one test, the target named is T1, human FcγRIIa(H) (human, UniProt P12318 36-217).
T1 construct: also called FcgRIIaH; FcγRIIa type H
T1 sequence: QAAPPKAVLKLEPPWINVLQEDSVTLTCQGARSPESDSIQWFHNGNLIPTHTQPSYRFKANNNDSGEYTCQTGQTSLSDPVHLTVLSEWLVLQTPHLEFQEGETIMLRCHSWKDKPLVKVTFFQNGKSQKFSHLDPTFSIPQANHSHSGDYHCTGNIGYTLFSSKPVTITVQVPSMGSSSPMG
The test can be described thus: SPR (Biacore), antibody captured, FcγR as analyte; amount bound / that of GpH7-B3/GpL16-k0 x 100. (In general: In SPR one partner is held on a chip, and binding of the other changes the refractive index at the surface.)

Test [1] deals with T2, human FcγRIIb (human, UniProt P31994 43-217, limits assumed).
T2 construct: also called FcgRIIb; FcγIIB
T2 sequence: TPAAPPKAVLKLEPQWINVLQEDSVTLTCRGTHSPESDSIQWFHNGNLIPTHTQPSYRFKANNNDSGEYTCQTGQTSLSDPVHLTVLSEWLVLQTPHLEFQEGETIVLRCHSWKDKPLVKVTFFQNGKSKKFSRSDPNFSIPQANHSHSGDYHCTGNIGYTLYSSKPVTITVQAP
Described as above.
Method: (§1) Interaction between each modified antibody and Fcγ receptor prepared in the manner described above was analyzed using the BIACORE™ T100 surface plasmon resonance system (GE Healthcare), BIACORE™ T200 surface plasmon resonance system (GE Healthcare), BIACORE™ A100 surface plasmon resonance system or BIACORE™ 4000 surface plasmon resonance system. HBS-EP+(GE Healthcare) was used for the running buffer, and measurements were carried out at 25° C. The chips used were chips in which antigen peptides, Protein A (Thermo Scientific), Protein A/G (Thermo Scientific) or Protein L (ACTIGEN® protein (Alltech or BioVision) were immobilized on the Series S Sensor Chip CM5 (GE Healthcare) or Series S Sensor Chip CM4 (GE Healthcare) by amine coupling, or chips in which preliminarily biotinylated antigen peptides were allowed to interact and then immobilized on the Series S Sensor Chip SA (certified) (GE Healthcare). The target antibodies were captured on these sensor chips, Fcγ receptor diluted with the running buffer was allowed to interact, followed by measurement of the amount of bound antibody. The amounts bound were compared between antibodies. However, since the amount of Fcγ receptor bound depends on the amount of captured antibody, the values used for comparison were first corrected by dividing the amount of Fcγ receptor bound by the captured amount of each antibody. Through reaction with 10 mM glycine-HCl at pH 1.5, the sensor chips were regenerated by washing off antibody captured on the sensor chips and used repeatedly.
(§2) Binding strength was evaluated according to the following method based on the results of analyzing the interaction with each FcγR. […] That value was then further multiplied by 100, and the resulting value was used as an indicator of relative binding activity to each FcγR.

The next test concerns the target T3, human FcγRIIa(R) (human, UniProt P12318 36-217).
T3 construct: also called FcgRIIaR; FcγRIIa type R
T3 chain: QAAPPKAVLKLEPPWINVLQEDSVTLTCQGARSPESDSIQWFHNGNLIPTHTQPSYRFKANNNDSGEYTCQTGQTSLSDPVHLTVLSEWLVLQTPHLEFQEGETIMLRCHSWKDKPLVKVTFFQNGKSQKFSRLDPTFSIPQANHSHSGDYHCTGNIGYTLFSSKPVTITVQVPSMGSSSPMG
The description is as above.

The target in another test is T4, human FcγRIIIa(F) (human, UniProt P08637 17-208, limits assumed).
T4 construct: also called FcgRIIIaF; FcγRIIIa allotype F158
Described as above.

Test [2] has as its target T5, human FcγRIa (human, UniProt P12314 16-292, limits assumed).
T5 construct: also called FcgRIa; CD64
The test is described as above.
T5 sequence (P12314 16-292 limits assumed): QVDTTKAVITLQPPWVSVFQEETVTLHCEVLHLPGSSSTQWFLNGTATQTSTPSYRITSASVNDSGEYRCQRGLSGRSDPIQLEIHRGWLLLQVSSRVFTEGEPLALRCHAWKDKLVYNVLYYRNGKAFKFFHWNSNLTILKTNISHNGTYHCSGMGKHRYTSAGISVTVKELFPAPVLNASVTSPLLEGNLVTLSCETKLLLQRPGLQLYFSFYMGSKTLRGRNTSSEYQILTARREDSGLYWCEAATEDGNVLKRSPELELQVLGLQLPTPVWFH
Method: as §1, §2

Test [3] addresses T6, human FcγRIa (human, UniProt P12314 16-292, limits assumed).
T6 construct: also called FcgRIa; FcγRI (CD64)
Kind of test: SPR (Biacore), FcγR over captured antibody; binding amount divided by that of IL6R-BF648/IL6R-L x 100.
T6 sequence (P12314 16-292 limits assumed): as above
Method: (§3) According to the following method, relative binding activities were calculated for the results of analyzing interactions with the respective FcγRs.

The next test addresses T7, human FcγRIIa type R (human, UniProt P12318 36-217).
T7 construct: also called FcgRIIaR; FcγRIIa(R)
T7 chain: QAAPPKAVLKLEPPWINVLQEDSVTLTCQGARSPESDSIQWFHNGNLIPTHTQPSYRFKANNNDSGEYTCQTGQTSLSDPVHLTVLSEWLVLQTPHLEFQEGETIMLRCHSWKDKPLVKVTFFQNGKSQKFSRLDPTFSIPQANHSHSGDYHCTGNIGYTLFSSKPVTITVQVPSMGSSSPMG
The test is described as above.

The next test deals with T8, human FcγRIIa type H (human, UniProt P12318 36-217).
T8 construct: also called FcgRIIaH; FcγRIIa(H)
T8 sequence: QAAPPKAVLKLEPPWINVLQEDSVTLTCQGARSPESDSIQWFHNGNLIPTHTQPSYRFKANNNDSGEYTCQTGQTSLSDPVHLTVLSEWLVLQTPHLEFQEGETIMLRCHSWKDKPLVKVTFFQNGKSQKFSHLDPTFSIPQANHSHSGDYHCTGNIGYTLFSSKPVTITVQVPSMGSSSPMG
Described as above.

Test [4] concerns the target T9, human FcγRIIb (human, UniProt P31994 43-217, limits assumed).
T9 construct: also called FcgRIIb; FcγIIB
T9 sequence: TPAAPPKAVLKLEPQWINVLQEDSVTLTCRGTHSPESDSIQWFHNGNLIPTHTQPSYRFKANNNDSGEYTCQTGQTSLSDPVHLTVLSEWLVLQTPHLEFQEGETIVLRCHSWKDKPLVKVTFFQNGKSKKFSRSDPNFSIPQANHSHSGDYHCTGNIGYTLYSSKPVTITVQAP
The description is as above.
Method: as §3

T4 sequence (P08637 other isoform, or with tags, fused parts or gaps limits assumed): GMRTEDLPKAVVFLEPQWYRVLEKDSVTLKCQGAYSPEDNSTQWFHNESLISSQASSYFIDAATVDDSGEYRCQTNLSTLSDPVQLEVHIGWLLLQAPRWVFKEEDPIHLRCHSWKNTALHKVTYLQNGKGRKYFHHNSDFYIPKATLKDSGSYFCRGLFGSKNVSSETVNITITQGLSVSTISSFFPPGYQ
Method for human FcγRIIIa(F): as §1, §2
Method for human FcγRIIa type H: as §3
Method for human FcγRIIa type R: as §3
Method for human FcγRIIa(H): as §1, §2
Method for human FcγRIIa(R): as §1, §2

B1: GpH7-B3/GpL16-k0 variant S298R (antibody, human IgG1)
heavy: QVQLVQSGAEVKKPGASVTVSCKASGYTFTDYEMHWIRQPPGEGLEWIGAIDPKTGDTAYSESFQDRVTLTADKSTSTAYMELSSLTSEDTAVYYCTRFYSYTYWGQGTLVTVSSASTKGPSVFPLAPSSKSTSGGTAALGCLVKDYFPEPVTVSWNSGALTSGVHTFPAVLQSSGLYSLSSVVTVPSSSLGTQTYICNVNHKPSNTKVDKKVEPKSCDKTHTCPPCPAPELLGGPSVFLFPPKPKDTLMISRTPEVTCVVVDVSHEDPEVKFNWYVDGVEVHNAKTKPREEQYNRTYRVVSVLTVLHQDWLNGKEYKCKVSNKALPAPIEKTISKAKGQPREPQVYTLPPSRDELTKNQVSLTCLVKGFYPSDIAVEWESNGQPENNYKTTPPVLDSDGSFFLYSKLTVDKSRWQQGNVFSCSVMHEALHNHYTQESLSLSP
light: DIVMTQSPLSLPVTPGEPASISCQASESLVHSNRNTYLHWYLQKPGQSPQLLIYKVSNRFSGVPDRFSGSGSGTDFTLKISRVEAEDVGVYYCSQNTHVPPTFGQGTKVEIE
notes: also called B3 variant; copies: 2 + 2
On to B1, for which the relative binding activity in the test with human FcγRIIa(H) turned out to be 36 GpH7-B3/GpL16-k0 = 100; in the test with human FcγRIIb [1] it was 22 GpH7-B3/GpL16-k0 = 100; with human FcγRIIa(R), 62 GpH7-B3/GpL16-k0 = 100; with human FcγRIIIa(F), 20 GpH7-B3/GpL16-k0 = 100; with human FcγRIa [2], 92 GpH7-B3/GpL16-k0 = 100.

B2: GpH7-B3/GpL16-k0 variant Y296K (antibody, human IgG1)
heavy: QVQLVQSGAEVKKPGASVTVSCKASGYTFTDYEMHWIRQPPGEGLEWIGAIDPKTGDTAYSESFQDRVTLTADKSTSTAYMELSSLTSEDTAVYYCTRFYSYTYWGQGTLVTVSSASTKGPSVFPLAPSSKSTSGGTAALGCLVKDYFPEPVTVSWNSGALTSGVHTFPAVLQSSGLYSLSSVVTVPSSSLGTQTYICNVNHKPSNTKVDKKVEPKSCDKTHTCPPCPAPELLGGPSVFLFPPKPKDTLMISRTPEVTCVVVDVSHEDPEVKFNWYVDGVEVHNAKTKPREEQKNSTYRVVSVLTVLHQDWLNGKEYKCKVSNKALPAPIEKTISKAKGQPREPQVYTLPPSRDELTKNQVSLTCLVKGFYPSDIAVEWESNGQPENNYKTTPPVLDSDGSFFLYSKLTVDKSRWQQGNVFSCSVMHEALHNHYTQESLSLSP
light: DIVMTQSPLSLPVTPGEPASISCQASESLVHSNRNTYLHWYLQKPGQSPQLLIYKVSNRFSGVPDRFSGSGSGTDFTLKISRVEAEDVGVYYCSQNTHVPPTFGQGTKVEIE
notes: as for B1
Consider B2, for which the relative binding activity with human FcγRIIa(H) was 66 GpH7-B3/GpL16-k0 = 100; in the test with human FcγRIIb [1], 45 GpH7-B3/GpL16-k0 = 100; with human FcγRIIa(R) it was 70 GpH7-B3/GpL16-k0 = 100; in the test with human FcγRIIIa(F) it was 21 GpH7-B3/GpL16-k0 = 100; with human FcγRIa [2] it was 99 GpH7-B3/GpL16-k0 = 100.

B3: GpH7-B3/GpL16-k0 variant Y296R (antibody, human IgG1)
heavy: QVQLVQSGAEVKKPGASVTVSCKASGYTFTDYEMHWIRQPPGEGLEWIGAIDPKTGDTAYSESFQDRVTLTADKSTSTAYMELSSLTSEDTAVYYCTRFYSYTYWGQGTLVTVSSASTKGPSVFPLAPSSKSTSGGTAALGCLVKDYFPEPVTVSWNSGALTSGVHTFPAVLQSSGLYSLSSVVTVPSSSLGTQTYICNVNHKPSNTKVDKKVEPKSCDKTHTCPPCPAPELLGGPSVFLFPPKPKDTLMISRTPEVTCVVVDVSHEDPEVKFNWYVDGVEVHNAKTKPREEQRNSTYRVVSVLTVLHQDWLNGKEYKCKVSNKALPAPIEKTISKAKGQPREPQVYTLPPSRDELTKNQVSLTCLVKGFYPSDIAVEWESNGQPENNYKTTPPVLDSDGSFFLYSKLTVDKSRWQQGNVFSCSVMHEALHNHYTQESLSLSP
light: DIVMTQSPLSLPVTPGEPASISCQASESLVHSNRNTYLHWYLQKPGQSPQLLIYKVSNRFSGVPDRFSGSGSGTDFTLKISRVEAEDVGVYYCSQNTHVPPTFGQGTKVEIE
notes: as for B1
B3: the relative binding activity with human FcγRIIa(H) came to 74 GpH7-B3/GpL16-k0 = 100; with human FcγRIIb [1], 52 GpH7-B3/GpL16-k0 = 100; in the test with human FcγRIIa(R) it was 77 GpH7-B3/GpL16-k0 = 100; with human FcγRIIIa(F), 38 GpH7-B3/GpL16-k0 = 100; with human FcγRIa [2], 100 GpH7-B3/GpL16-k0 = 100.

B4: GpH7-B3/GpL16-k0 variant S298Y (antibody, human IgG1)
heavy: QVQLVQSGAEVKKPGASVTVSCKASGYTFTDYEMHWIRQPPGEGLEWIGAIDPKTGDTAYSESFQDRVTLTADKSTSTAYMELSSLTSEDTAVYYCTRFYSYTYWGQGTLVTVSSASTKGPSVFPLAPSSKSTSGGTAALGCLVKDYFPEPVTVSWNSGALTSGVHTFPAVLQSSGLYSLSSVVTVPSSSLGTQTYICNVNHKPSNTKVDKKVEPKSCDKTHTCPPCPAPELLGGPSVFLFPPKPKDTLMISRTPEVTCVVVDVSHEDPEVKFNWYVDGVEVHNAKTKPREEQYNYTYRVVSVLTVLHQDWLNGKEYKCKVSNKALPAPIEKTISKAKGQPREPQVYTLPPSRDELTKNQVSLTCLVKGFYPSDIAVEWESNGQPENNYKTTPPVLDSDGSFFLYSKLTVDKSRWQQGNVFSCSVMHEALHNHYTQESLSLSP
light: DIVMTQSPLSLPVTPGEPASISCQASESLVHSNRNTYLHWYLQKPGQSPQLLIYKVSNRFSGVPDRFSGSGSGTDFTLKISRVEAEDVGVYYCSQNTHVPPTFGQGTKVEIE
notes: as for B1
As to B4, the relative binding activity with human FcγRIIa(H) amounted to 35 GpH7-B3/GpL16-k0 = 100; in the test with human FcγRIIb [1] it was 23 GpH7-B3/GpL16-k0 = 100; with human FcγRIIa(R), 33 GpH7-B3/GpL16-k0 = 100; with human FcγRIIIa(F), 71 GpH7-B3/GpL16-k0 = 100; with human FcγRIa [2], 100 GpH7-B3/GpL16-k0 = 100.

B5: GpH7-B3/GpL16-k0 variant Y296G (antibody, human IgG1)
heavy: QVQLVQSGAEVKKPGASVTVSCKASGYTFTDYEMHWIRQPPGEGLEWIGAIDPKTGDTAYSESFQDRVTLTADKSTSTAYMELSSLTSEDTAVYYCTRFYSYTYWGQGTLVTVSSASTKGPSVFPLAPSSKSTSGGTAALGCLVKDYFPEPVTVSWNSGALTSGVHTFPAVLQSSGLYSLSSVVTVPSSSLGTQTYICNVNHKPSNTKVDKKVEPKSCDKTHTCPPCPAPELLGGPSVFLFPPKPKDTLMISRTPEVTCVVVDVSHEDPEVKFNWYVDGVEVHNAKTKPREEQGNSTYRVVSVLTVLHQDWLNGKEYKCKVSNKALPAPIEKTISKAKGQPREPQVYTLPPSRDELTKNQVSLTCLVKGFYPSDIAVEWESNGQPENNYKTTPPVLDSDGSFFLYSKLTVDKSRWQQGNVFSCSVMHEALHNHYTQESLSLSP
light: DIVMTQSPLSLPVTPGEPASISCQASESLVHSNRNTYLHWYLQKPGQSPQLLIYKVSNRFSGVPDRFSGSGSGTDFTLKISRVEAEDVGVYYCSQNTHVPPTFGQGTKVEIE
notes: as for B1
On to B5, for which the relative binding activity in the test with human FcγRIIa(H) worked out at 83 GpH7-B3/GpL16-k0 = 100; with human FcγRIIb [1], 58 GpH7-B3/GpL16-k0 = 100; in the test with human FcγRIIa(R) it was 77 GpH7-B3/GpL16-k0 = 100; with human FcγRIIIa(F), 21 GpH7-B3/GpL16-k0 = 100; with human FcγRIa [2], 100 GpH7-B3/GpL16-k0 = 100.

B6: IL6R-BP130/IL6R-L (antibody, human IgG1, name in EU numbering)
heavy: QVQLQESGPGLVKPSETLSLTCAVSGHSISHDHAWSWVRQPPGEGLEWIGFISYSGITNYNPSLQGRVTISRDNSKNTLYLQMNSLRAEDTAVYYCARSLARTTAMDYWGEGTLVTVSSASTKGPSVFPLAPSSKSTSGGTAALGCLVKDYFPEPVTVSWNSGALTSGVHTFPAVLQSSGLYSLSSVVTVPSSSLGTQTYICNVNHKPSNTKVDKKVEPKSCDKTHTCPPCPAPDLLGGDSVFLFPPKPKDTLMISRTPEVTCVVVDVSHEDPEVKFNWYVDGVEVHNAKTKPREEQYNSTYRVVSVLTVLHQDWLNGKEYKCKMSNKALPKPIEKTISKAKGQPREPQVYTLPPSRDELTKNQVSLTCLVKGFYPSDIAVEWESNGQPENNYKTTPPVLDSDGSFFLYSKLTVDKSRWQQGNVFSCSVMHEALHNHYTQESLSLSP
light: DIQMTQSPSSLSASVGDRVTITCRASQDISSYLNWYQQKPGKAPKLLIYYTSRLHSGVPSRFSGSGSGTDFTFTISSLQPEDIATYYCQQGNTLPYTFGQGTKVEIK
notes: copies: 2 + 2
Regarding B6, the values for the relative binding activity with human FcγRIa [3], with human FcγRIIa type R and with human FcγRIIa type H were 104 relative (IL6R-BF648/IL6R-L = 100), 272 relative (IL6R-BF648/IL6R-L = 100) and 224 relative (IL6R-BF648/IL6R-L = 100), respectively.

B7: IL6R-BP152/IL6R-L (antibody, human IgG1, name in EU numbering)
heavy: QVQLQESGPGLVKPSETLSLTCAVSGHSISHDHAWSWVRQPPGEGLEWIGFISYSGITNYNPSLQGRVTISRDNSKNTLYLQMNSLRAEDTAVYYCARSLARTTAMDYWGEGTLVTVSSASTKGPSVFPLAPSSKSTSGGTAALGCLVKDYFPEPVTVSWNSGALTSGVHTFPAVLQSSGLYSLSSVVTVPSSSLGTQTYICNVNHKPSNTKVDKKVEPKSCDKTHTCPPCPAPDYLGDDSVFLFPPKPKDTLMISRTPEVTCVVVDVSHEDPEVKFNWYVDGVEVHNAKTKPREEQDNSTYRVVSVLTVLHQDWLNGKEYKCKVSNAALPRPIEKTISKAKGQPREPQVYTLPPSRDELTKNQVSLTCLVKGFYPSDIAVEWESNGQPENNYKTTPPVLDSDGSFFLYSKLTVDKSRWQQGNVFSCSVMHEALHNHYTQESLSLSP
light: DIQMTQSPSSLSASVGDRVTITCRASQDISSYLNWYQQKPGKAPKLLIYYTSRLHSGVPSRFSGSGSGTDFTFTISSLQPEDIATYYCQQGNTLPYTFGQGTKVEIK
notes: the list runs over r38 and r39; copies: 2 + 2
As for B7, the relative binding activity with human FcγRIIb [4] was 178 relative (IL6R-BF648/IL6R-L = 100); in the test with human FcγRIa [3], 34 relative (IL6R-BF648/IL6R-L = 100); in the test with human FcγRIIa type R it was 638 relative (IL6R-BF648/IL6R-L = 100); with human FcγRIIa type H, 548 relative (IL6R-BF648/IL6R-L = 100).

B8: IL6R-BP176/IL6R-L (antibody, human IgG1, name in EU numbering)
heavy: QVQLQESGPGLVKPSETLSLTCAVSGHSISHDHAWSWVRQPPGEGLEWIGFISYSGITNYNPSLQGRVTISRDNSKNTLYLQMNSLRAEDTAVYYCARSLARTTAMDYWGEGTLVTVSSASTKGPSVFPLAPSSKSTSGGTAALGCLVKDYFPEPVTVSWNSGALTSGVHTFPAVLQSSGLYSLSSVVTVPSSSLGTQTYICNVNHKPSNTKVDKKVEPKSCDKTHTCPPCPAPDLLGGDSVFLFPPKPKDTLMISRTPEVTCVVVDVSHEDPEVKFNWYVDGVEVHNAKTKPREEQYNSTYRVVSVLTVLHQDWLNGKEYKCKVSNDALPKPIEKTISKAKGQPREPQVYTLPPSRDELTKNQVSLTCLVKGFYPSDIAVEWESNGQPENNYKTTPPVLDSDGSFFLYSKLTVDKSRWQQGNVFSCSVMHEALHNHYTQESLSLSP
light: DIQMTQSPSSLSASVGDRVTITCRASQDISSYLNWYQQKPGKAPKLLIYYTSRLHSGVPSRFSGSGSGTDFTFTISSLQPEDIATYYCQQGNTLPYTFGQGTKVEIK
notes: copies: 2 + 2
With B8, the relative binding activity in the test with human FcγRIIb [4] was 147 relative (IL6R-BF648/IL6R-L = 100); with human FcγRIa [3] it was 102 relative (IL6R-BF648/IL6R-L = 100); with human FcγRIIa type R it was 201 relative (IL6R-BF648/IL6R-L = 100); with human FcγRIIa type H, 128 relative (IL6R-BF648/IL6R-L = 100).

B9: IL6R-BP146/IL6R-L (antibody, human IgG1, name in EU numbering)
heavy: QVQLQESGPGLVKPSETLSLTCAVSGHSISHDHAWSWVRQPPGEGLEWIGFISYSGITNYNPSLQGRVTISRDNSKNTLYLQMNSLRAEDTAVYYCARSLARTTAMDYWGEGTLVTVSSASTKGPSVFPLAPSSKSTSGGTAALGCLVKDYFPEPVTVSWNSGALTSGVHTFPAVLQSSGLYSLSSVVTVPSSSLGTQTYICNVNHKPSNTKVDKKVEPKSCDKTHTCPPCPAPEYLGDDSVFLFPPKPKDTLMISRTPEVTCVVVDVSHEDPEVKFNWYVDGVEVHNAKTKPREEQYNSTYRVVSVLTVLHQDWLNGKEYKCKVSNAALPAPIEKTISKAKGQPREPQVYTLPPSRDELTKNQVSLTCLVKGFYPSDIAVEWESNGQPENNYKTTPPVLDSDGSFFLYSKLTVDKSRWQQGNVFSCSVMHEALHNHYTQESLSLSP
light: DIQMTQSPSSLSASVGDRVTITCRASQDISSYLNWYQQKPGKAPKLLIYYTSRLHSGVPSRFSGSGSGTDFTFTISSLQPEDIATYYCQQGNTLPYTFGQGTKVEIK
notes: copies: 2 + 2
Consider B9, for which the relative binding activity with human FcγRIIb [4] is 156 relative (IL6R-BF648/IL6R-L = 100); with human FcγRIIa type R, 445 relative (IL6R-BF648/IL6R-L = 100); with human FcγRIIa type H it was 203 relative (IL6R-BF648/IL6R-L = 100).
